The text below walks through data of patent publication US20210253725A1 (BIONTECH, published 2021).

In test [1] the target is T1, CD27 expressed on the cell surface (HT1080_CD27 cells) (human, UniProt P26842 20-260).
T1 sequence (looked up): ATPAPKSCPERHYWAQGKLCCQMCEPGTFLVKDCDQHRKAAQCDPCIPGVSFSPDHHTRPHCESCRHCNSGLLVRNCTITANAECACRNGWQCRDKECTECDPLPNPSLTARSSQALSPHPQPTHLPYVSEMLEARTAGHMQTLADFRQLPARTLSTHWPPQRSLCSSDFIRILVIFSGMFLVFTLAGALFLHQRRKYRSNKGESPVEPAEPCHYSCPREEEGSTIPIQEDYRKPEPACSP
As to the kind of experiment: cell-based or functional assay.

Test [2] addresses T2, CD27 protein (His-tagged, Sino Biological Inc. 10039-H08B1) (human, UniProt P26842 20-192).
T2 construct: bought; coated onto ELISA plates; also called human CD27; recombinant protein; not shown: His tag
T2 sequence (looked up): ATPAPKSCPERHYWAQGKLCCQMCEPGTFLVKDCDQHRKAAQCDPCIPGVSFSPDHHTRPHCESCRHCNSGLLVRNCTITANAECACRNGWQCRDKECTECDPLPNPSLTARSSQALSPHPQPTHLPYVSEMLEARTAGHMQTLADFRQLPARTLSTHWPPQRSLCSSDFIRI
As to the kind of experiment: ELISA on coated His-tagged CD27.

Test [3] deals with T1, CD27 expressed on the cell surface …. As to the kind of experiment: cellular binding assay, HT1080_CD27 cells.
Further: test concentration or dose not given here.

B1: P018.S.03.A.F04 (antibody, V domains shown)
VH: QSVEESGGRLVTPGTPLTLTCTVSGFSLSSYAMGWVRQAPGKGLQWIGILYRNDAASYANWAKGRFTISKTSTTVDLTMPSLTTEDTATYFCVRGYVNDGYYNLWGQGTLVTVSS
VL: AYDMTQTPASVEVAVGGTVTIKCQASESIGYRLAWYQQKPGQPPKLLIFDASDLASGVPSRFKGSGSGKHFTLTISGVQSADAATYYCQQDYSYSITDNCFGGGTEVVVS
notes: V regions on human Ig constant parts; also called AB27_55
With B1, in test [1], the “IL-8, cross-linked by F(ab')2 fragment [abs. corr.]” value (shortened to “IL-8, cross-linked”) was 1.59 abs. corr and the “IL-8 [abs. corr.]” value turned out to be 0.253 abs. corr. Moreover, the “ELISA [abs. corr.]” value in test [2] turned out to be 3.31 abs. corr. In addition, in test [3], the “Cellular binding assay [RFU]” value turned out to be 299 RFU.

B2: P018.S.01.A.E03 (antibody, V domains shown)
VH: QSVEESGGRLVTPGTPLTLTCTVSGFSLSSYAMGWVRQAPGKGLQWIGILYRNDAASYANWAKGRFTISKTSTTVDLTMPSLTTEDTATYFCVRGYVNDGYYNLWGQGTLVTVSS
VL: AYDMTQTPASVEVAVGGTVTIKCQASESIGYRLAWYQQKSGQPPKLLIFDASDLASGVPSRFKGSGSGKHFTLTISGVQSADAATYYCQQDYSYSIIDNSFGGGTEVVVK
notes: V regions on human Ig constant parts; also called AB27_15
On to B2, for which, in test [1], the “IL-8, cross-linked” value stood at 1.22 abs. corr and the “IL-8 [abs. corr.]” value came to 0.436 abs. corr. In addition, in test [2], the “ELISA [abs. corr.]” value worked out at 3.3 abs. corr. Moreover, in test [3], the “Cellular binding assay [RFU]” value stood at 335 RFU.

B3: P018.S.03.A.C05 (antibody, V domains shown)
VH: QSLEESGGGLVQPGGTLTLTCKASGIDFSSSFYMCWVRQAPGKGLERIACTYNRDGSTYYASWAKGRFTISKTSSTTVTLQMASLTVADTATYFCARDDGYPGSGYVFNLWGPGTLVTVSS
VL: DVVMTQTPASVEAAVGGTVTIKCQASQSVSSYLSWYQQKPGQRPKLLIYGASNLESGVPSRFKGSGSGTEFTLTISGVQSDDAATYYCQGGYYSSGADNNSFGGGTELVVK
notes: V regions on human Ig constant parts; also called AB27_46
Turning to B3, in test [1], the “IL-8, cross-linked” value turned out to be 1.63 abs. corr and the “IL-8 [abs. corr.]” value amounted to 0.544 abs. corr. For the same molecule, the “ELISA [abs. corr.]” value in test [2] worked out at 3.32 abs. corr. In test [3], the “Cellular binding assay [RFU]” value stood at 303 RFU.

B4: P018.S.10.A.F01 (antibody, V domains shown)
VH: QSLEESGGGLVQPEGSLTLTCTASGFSFSSSDYMCWVRQAPGKGLEWIACMYTGSVEHTYYANWAEGRFTISKTSSTTVTLQMTSLTAADTATYFCARSPTGYPDYGYGGFSLWGPGTLVTVSS
VL: ALVMTQTPSSVSAAVGGTVTINCQASQNIYSNLAWYQQKSGQRPKLLIHGASNLESGVPSRFKGSGSGTEFTLTISDLESADAATYYCQSAYYSGGPDMAFGGGTEVVVK
notes: V regions on human Ig constant parts; also called AB27_179
As to B4, in test [1], the “IL-8, cross-linked” value came to 1.05 abs. corr and the “IL-8 [abs. corr.]” value was -0.011 abs. corr. The “ELISA [abs. corr.]” value in test [2] is 3.31 abs. corr. Moreover, the “Cellular binding assay [RFU]” value in test [3] came to 329 RFU.

B5: P018.S.01.A.B03 (antibody, V domains shown)
VH: QSLEESGGRLVTPGTPLTLTCTVSGFSLSSNAMSWVRQAPGEGLEWIGTIYTHGSSYYATWAKGRFTISKTSSTTVDLKMTSLTTEDTATYFCAGWAGGLSLWGPGTLVTVSS
VL: DVVMTQTPASVSEPVGGTVTIKCQASEDIDNALAWYQQKPGQAPKILIYSASTLPSGVPSRFKGSGSGTQFTLTISDLESADAATYYCQSAYGGTYGDGFGGGTEVVVK
notes: V regions on human Ig constant parts; also called AB27_4
Turning to B5, in test [1], the “IL-8, cross-linked” value was determined as 1.7 abs. corr and the “IL-8 [abs. corr.]” value stood at 0.06 abs. corr. Besides, the “ELISA [abs. corr.]” value in test [2] is 3.3 abs. corr. For the same molecule, the “Cellular binding assay [RFU]” value in test [3] was 387 RFU.

B6: P018.S.05.A.B02 (antibody, V domains shown)
VH: QSLEESGGRLVTPGTPLTLTCKVSGFSLSSYDMIWVRQAPGKGLEWIGIVSTGGSAGYASWAKGRFTITKTSTTVDLKITSPTTEDTATYFCARIISGGRDLWGPGTLVTVSS
VL: DIVMTQTPASVEAAVGGTVTIKCQASESISSRLAWYQQKPGQPPKLLIYSASTLAFGVSSRFKGSGSGTQFTLTISDLESADAATYYCQSYYYSSTASYASNNAFGGGTEVVVK
notes: V regions on human Ig constant parts; also called AB27_83
B6: in test [1], the “IL-8, cross-linked” value stood at 1.95 abs. corr and the “IL-8 [abs. corr.]” value worked out at 0.633 abs. corr. Further, the “ELISA [abs. corr.]” value in test [2] is 3.32 abs. corr. The “Cellular binding assay [RFU]” value in test [3] was found to be 259 RFU.

B7: P018.S.07.A.G02 (antibody, V domains shown)
VH: QSVEESGGRLVTPGTPLTLTCTVSGFSLSSYDMSWVRQAPGKGLEWIGWITTDGGTDYASWAKGRFTVSKASTTVDLKITSPTTEDTATYFCARGYASFNLWGQGTLVTVSS
VL: AQVLTQTPSSVSAAVGGTVTINCQSSQSVLSNSYLAWYQQKPGQPPKLLIYAASSLASGVPSRFKGSGSGTQFTLTISDLESDDAATYYCQGTDYSGGWYVAFGGGTEVVVK
notes: V regions on human Ig constant parts; also called AB27_129
For the molecule B7, in test [1], the “IL-8, cross-linked” value is 2.41 abs. corr and the “IL-8 [abs. corr.]” value turned out to be 0.725 abs. corr. The “ELISA [abs. corr.]” value in test [2] was found to be 3.33 abs. corr. The “Cellular binding assay [RFU]” value in test [3] came out at 453 RFU.

B8: P018.S.04.A.A01 (antibody, V domains shown)
VH: QEQLVESGGGLVQPEGSLTLTCTESGFSFSSNAVCWVRQAPGKGLEWIACIYVDSIGSTWYASWAKGRFTISKTSSTTVTLQMTSLTAADTATYFCARGDNIAYFMLWGPGTLVTVSS
VL: DIVMTQTPASVEAAVGGTVTIRCQASESITSFLSWYQQKPGQPPKLLIYKISTLASGVPSRFKASGSGTEFTLTISDLESADAAAYYCQGYYYYSNVVYASNGFGGGTEVVVK
notes: V regions on human Ig constant parts; also called AB27_64
On to B8, for which, in test [1], the “IL-8, cross-linked” value came out at 1.47 abs. corr and the “IL-8 [abs. corr.]” value came out at 0.176 abs. corr. Further, the “ELISA [abs. corr.]” value in test [2] turned out to be 3.32 abs. corr. Further, the “Cellular binding assay [RFU]” value in test [3] worked out at 297 RFU.

B9: P018.S.02.A.E06 (antibody, V domains shown)
VH: QSLEESGGRLVTPGTPLTLTCTASGFSLSNYSMNWVRQAPGKGLEWIGIINMYGSTYYATWAKGRFTISKTSTTVDLKMTSLTTEDTATYFCARDAGGSTVPWYFDLWGPGTLVTVSS
VL: AYDMTQTPASVSEPVGGTVTIKCQASESISDYLAWYQQKPGQRPKLLIYDASKLASGVPSRFSGSGSGTEFTLTISGVGSADAATYYCQQGYADSNVDNVFGGGTEVVVK
notes: V regions on human Ig constant parts; also called AB27_34
As for B9, in test [1], the “IL-8, cross-linked” value worked out at 1.29 abs. corr and the “IL-8 [abs. corr.]” value came out at 0.308 abs. corr. Further, the “ELISA [abs. corr.]” value in test [2] came to 3.32 abs. corr. Besides, the “Cellular binding assay [RFU]” value in test [3] turned out to be 331 RFU.

B10: P018.S.09.A.E06 (antibody, V domains shown)
VH: QSVEESGGRLVTPGTPLTLTCTVSGFSLSSYGMIWVRQAPGKGLEWIAWSSSNDNTYYASWAKGRFTISKTSSTTVDLKMTSLTTEDTATYFCARNGVYSTGNYFDLWGQGTLVTVSS
VL: AQVLTQTPSPVSAAVGGTVTINCQASQSVYNNNNLAWYQQKPGQPPKFLIYAASRLPSGVPPRFSGSGSGTQFTLTISDVQSDDAATYYCQGEFDCDSADCFAFGGGTEVVVK
notes: V regions on human Ig constant parts; also called AB27_156
B10: in test [1], the “IL-8, cross-linked” value came out at 1.73 abs. corr and the “IL-8 [abs. corr.]” value amounted to 1.23 abs. corr. Also, the “ELISA [abs. corr.]” value in test [2] came to 3.54 abs. corr. Moreover, in test [3], the “Cellular binding assay [RFU]” value worked out at 307 RFU.

B11: P018.S.10.A.F05 (antibody, V domains shown)
VH: QSVEESGGRLVTPGTPLTLTCTVSGFSLSGYHMCWVRQAPGKGLQYIGIIGSNGVTYYASWAKSRSTITRNTNENTVTLKMTSLTTEDTATYFCARSSGWGARFNLWGQGTLVTVSS
VL: AQVLTQTPASVSAAVGGTVTINCQASQSVYNDNELSWYQQKPGQPPKLLIYKASTLTSGVPLRFSGSGSGTQFTLTISDVQSDDAATYYCLGGGSTPSDSTFGGGTEVVVK
notes: V regions on human Ig constant parts; also called AB27_181
For the molecule B11, in test [1], the “IL-8, cross-linked” value amounted to 1.34 abs. corr and the “IL-8 [abs. corr.]” value stood at 0.267 abs. corr. In addition, the “ELISA [abs. corr.]” value in test [2] was 3.49 abs. corr. For the same molecule, the “Cellular binding assay [RFU]” value in test [3] is 335 RFU.

B12: P018.S.10.A.G03 (antibody, V domains shown)
VH: QSVEESGGRLVTPGTPLTLTCTVSGFTISSYHMCWVRQAPGKGLQYIGIIGSNGNTYYASWAKSRSTITRNTNENTVTLKMTSLTTEDTATYFCARSSGWGARFNLWGQGTLVTVSS
VL: AQVLTQTPSSVSAAVGGTVTINCQASQSVYNDNELSWYQQKPGQPPKLLIYKASTLTSGVPLRFSGSGSGTQFTLTISDVQSDDAATYYCLGGGSTPSDSTFGGGTEVVVK
notes: V regions on human Ig constant parts; also called AB27_182
Regarding B12, in test [1], the “IL-8, cross-linked” value was determined as 1.3 abs. corr and the “IL-8 [abs. corr.]” value was -0.18 abs. corr. Further, the “ELISA [abs. corr.]” value in test [2] was 3.31 abs. corr. For the same molecule, the “Cellular binding assay [RFU]” value in test [3] came to 386 RFU.

B13: P018.S.10.A.A06 (antibody, V domains shown)
VH: QSVEESGGRLVTPGTPLTLTCTVSGFSLSGYHMCWVRQAPGKGLQYIGIIGSNGNTYYASWAKSRSTITRNTNENTVTLKMTSLTTEDTATYFCARSSGWGARFNLWGQGTLVTVSS
VL: AQVLTQTPSSVSAAVGGTVTINCQASQSIYNDNELSWYQQKPGQPPKLLIYKASTLASGVPLRFSGSGSGTQFTLTISDVQSDVAATYYCLGGGMTPSDTTFGGGTEVVVK
notes: V regions on human Ig constant parts; also called AB27_165
For the molecule B13, in test [1], the “IL-8, cross-linked” value was 1.12 abs. corr and the “IL-8 [abs. corr.]” value was -0.13 abs. corr. For the same molecule, the “ELISA [abs. corr.]” value in test [2] stood at 3.18 abs. corr. In addition, the “Cellular binding assay [RFU]” value in test [3] stood at 414 RFU.

B14: P018.S.08.A.G02 (antibody, V domains shown)
VH: QSVEESGGRLVTPGTPLTLTCTVSGFSLSTYAMSWVRQAPGKGLEWIGMNTRSGIIYYASWAKGRFTISKTSTTVHLKITSPTTEDTATYFCARDLYADVSGYYLGLWGPGTLVTVSS
VL: AQVLTQTPSSVSAAVGGTVTINCQASQSLYNNKNLAWYQQKPGQPPKLLIYYASTLASGVSSRFKGSGSGTQFTLTISDLESDDAATYYCQGEFICSSADCVVFGGGTAVVVK
notes: V regions on human Ig constant parts; also called AB27_141
As for B14, in test [1], the “IL-8, cross-linked” value was determined as 2.48 abs. corr and the “IL-8 [abs. corr.]” value turned out to be 0.598 abs. corr. Moreover, the “ELISA [abs. corr.]” value in test [2] worked out at 3.32 abs. corr. Moreover, the “Cellular binding assay [RFU]” value in test [3] turned out to be 315 RFU.
